The DeepSol protein solubility set

Assay: soluble on expression in E. coli; label from the status in PepcDB or PDB records

**Q.** With “MGSDKIHHHHHHMGEVIKNRYEFVVLFDVENGNPNGDPDAGNMPRIDPESGLGIVTDVCLKRKIRNYIETVKEDEDGYKIYIKENVPLNRSDREACKSLGINDDEDKKVTEALKKLKKSDKDADIKLRDYMCRNFYDIRAFGAVMTTFVKASLNCGQVRGPVQLGFARSIDPVISQEVTITRVAITTEKDAENKSNEMGRKSIVPYGLYRVEGYISANLARKVTGFSEEDLELLWDAVINMFENDHSAARGKMAVRELIVFKHSKELGDCPAYKLFDAVKVQKNDDIQYPRKYQDYTVTINDDEIPDTVEVKRMI” as the sequence, how does the “soluble on expression in E. coli” value read?
**A.** not soluble

**Q.** Which “soluble on expression in E. coli” value does the source give for “METFKDRLVFLWKSEARQAKIASDIEMTIAGFSRIWNEGGLPKSETLKKIKQLKGCSIDWLLTGEGNPFPDEAPKKSLAYDTLGNEVDTDEFVFVPRYDIRAAAGYGQFVDHEEPVFTMAFRRHWIENYVTRDTKNLSVISVKGDSMEGVLNDGDSILVNHGENTPRDGLYVLRINENLLVKRLQIVPGGIINVISANEAYPAFEINLNDLTDDVEIIGRVEWFGRTI” here?
**A.** not soluble

**Q.** For “MDAEEIRAIFRFSAMEKNMIYSFGIQGDLFLPFLLSLKSGGSWSYATEETKSIAVKDVITYYDEESKTGYTLEKIYFFIDPEVVAKEGVVRRLEKCGTKEERELVERPYIIALRAKRIIFAEVNPGSRKITVRELEKKCIQLKGTPAYSAAHELEHLKKGEVEGIPLWSFEYVKDQ”, which “soluble on expression in E. coli” value is on record?
**A.** not soluble

**Q.** For “MGSDKIHHHHHHMDTKAFKRALHQSDRYNRKGFGKTTDVSGALESAYQSDLIQSLRQNGYRLQRGEITIRLAEAFGFCWGVERAVAIAYETRQHFPQERIWITNEIIHNPSVNQHLREMSVEFIPCERGEKDFSVVDRGDVVILPAFGASVQEMQLLDEKGCHIVDTTCPWVSKVWNTVEKHKRGAHTSIIHGKYNHEETVATSSFAETYLVVLNLEQAQYVCDYILNGGDRDEFMTRFGKACSAGFDPDRDLERIGIANQTTMLKSETEAIGKLFERTLLKKYGPQALNDHFLAFNTICDATQERQDAMFQLVEEPLDLIVVIGGFNSSNTTHLQEIAIERQIPSFHIDAAERIGPGNRIEHKPLHTDLTTTEPWLPAGPLTIGITSGASTPDKVVEDVIERLFDLQRS”, which “soluble on expression in E. coli” value is on record?
**A.** not soluble

**Q.** For “MSEVESQQSQETNGSSKFDVPEIELIIKASTIDGRRKGACLFCQEYFMDLYLLAELKTISLKVTTVDMQKPPPDFRTNFEATHPPILIDNGLAILENEKIERHIMKNIPGGYNLFVQDKEVATLIENLYVKLKLMLVKKDEAKNNALLSHLRKINDHLSARNTRFLTGDTMCCFDCELMPRLQHIRVAGKYFVDFEIPTHLTALWRYMYHMYQLDAFTQSCPADQDIINHYKLQQSLKMKKHEELETPTFTTYIPIDISE”, which “soluble on expression in E. coli” value is on record?
**A.** soluble

**Q.** Which “soluble on expression in E. coli” value does the source give for “MGAAMGPALAVDAAQEAPTADNSPAVEAPQTPEEGEQSAQTSQDNPRYESQIVRAGHSAEAEQVGDVSEDTIFEYSEFDIPEGWFVSVDEDSGKVTVSTPPDAQDGDNYTVKVKAVDLDGNVTWSEVTFTVGDPETDNPEIEPLDADAPEVELPAAE” here?
**A.** not soluble

**Q.** With “SAAQKINEGLEHLAKAEKYLKTGFLKWKPDYDSAASEYGKAAVAFKNAKQFEQAKDACLREAVAHENNRALFHAAKAYEQAGMMLKEMQKLPEAVQLIEKASMMYLENGTPDTAAMALERAGKLIENVDPEKAVQLYQQTANVFENDERLRQAVELLGKASRLLVRGRRFDEAALSIQKEKNIYKEIENYPTCYKKTIAQVLVHLHRNDYVAAERCVRESYSIPGFNGSEDCAALEQLLEGYDQQDQDQVSDVCNSPLFKYMDNDYAKLGLSLVVPGGGIKKKSPATPQAKPDGVTATAADEEEDEYSGGLC” as the sequence, how does the “soluble on expression in E. coli” value read?
**A.** soluble

**Q.** For “TMITNSRGSVDLQPSLTGVFPSGLIETKVSAAKITENYQFDSRIRLNSIGFIPNHSKKATIAANCSTFYVVKEDGTIVYTGTATSMFDNDTKETVYIADFSSVNEEGTYYLAVPGVGKSVNFKIAMNVYEDAFKTAMLGMYLLRCGTSVSATYNGIHYSHGPCHTNDAYLDYINGQHTKKDSTKGWHDAGDYNKYVVNAGITVGSMFLAWEHFKDQLEPVALEIPEKNNSIPDFLDELKYEIDWILTMQYPDGSGRVAHKVSTRNFGGFIMPENEHDERFFVPWSSAATADFVAMTAMAARIFRPYDPQYAEKCINAAKVSYEFLKNNPANVFANQSGFSTGEYATVSDADDRLWAAAEMWETLGDEEYLRDFENRAAQFSKKIEADFDWDNVANLGMFTYLLSERPGKNPALVQSIKDSLLSTADSIVRTSQNHGYGRTLGTTYYWGCNGTVVRQTMILQVANKISPNNDYVNAALDAISHVFGRNYYNRSYVTGLGINPPMNPHDRRSGADGIWEPWPGYLVGGGWPGPKDWVDIQDSYQTNEIAINWNAALIYALAGFVNYNSPQNEVLYGDVNDDGKVNSTDLTLLKRYVLKAVSTLPSSKAEKNADVNRDGRVNSSDVTILSRYLIRVIEKLPI”, which “soluble on expression in E. coli” value is on record?
**A.** soluble

**Q.** Which “soluble on expression in E. coli” value does the source give for “MKGHCHCGAVRWQSDGKVAWSCYCHCADCRRNCAAPVTAFFGLPHESVTWSGDAPRIYRSTDRVERLFCGTCGTQMAYRNADDRVNIHLYTATLEDPSALPPRFHVFHTARLPWLDLQDDLPRFDRTAG” here?
**A.** not soluble

**Q.** For “MAKPIPVKVVVLTTFEIGAVTGDRPGEFQPWVEGLPLTETIAVPGLRHPARYSPKDGVLGVMTDMRARARESVAALLLDKRFDFSKTYWLVAGIAGVDPKAASIGSAAWARYVVDADPIYEVDDREIPADWPYGLYALETERPNVKGSAEGSSGMVWALNWRLVDWAYGLTAKVEIPDHPGLAALRAPYVGDPNAQRPPFVLKGEALGATRFWHGAKRTQWAQDWVKLWTDGAGVFVMTDCEDQGILDVLDLYAKAGRVDFQRVMVLRTASNYSRPPLGAPAFPRAFHDEGAVSAFDSAYRVGSVVVRELTARWDRYEANTPDMTAIGGTAKLEHHHHHH”, which “soluble on expression in E. coli” value is on record?
**A.** not soluble

**Q.** Which “soluble on expression in E. coli” value does the source give for “MSLNEDWPTIAFLVPMDRNHEYGRNYVSSLRKAAEEHHVNAFVMNSNYDASVQASQMKIAIAKKVDGIVIWPALYGAEQPMLIQAQRAGIPVDISNSQPPEDLDTSLYHAFTGPNDQRIGELQGKELAKLLGSKGTYVYIGGTPGNAAAINRQIGLEREMANHPDVKLLGSQPGNFDKNQAQTAASALISRFGNQIDALVTPDDIIASGAAQALDAAGMAGQVKLLGHNYAPVARSLLENGSMSTTLFQSPCWDSTHALTTMMDVLAGKDVPPVSYMPLPVVTKDNLDEFTPNGCLPEGYSEPATNEGHHHHHH” here?
**A.** soluble

**Q.** With “MASPSASADDVKLTADGKICLDDPAEFLKRKPKKSILKMKQDSSLEGKDGRAHFDEMNILATYHPTDKDYGSMKIDEPKTPYHHSDGESECDEGVLGVPTTRPRRVSLGNAIDPEKVAEGLAHPESGKSLSSAEDSEDEADLTEEQRAHRRDFEKKRRAHYNEGAALKHHPELEDDEEEATAAAAGAGGNMEH” as the sequence, how does the “soluble on expression in E. coli” value read?
**A.** not soluble

**Q.** For “MRRPPIVRCLFFLNDTIVLELEKTRVISERSNEEVIVVIRKTVKGTDGREYTFVAKEGTFEKLTGLGTTIRGHIPGTDSPFYGILEDGEEGLRAWIMTFRVVNRVPIDSETEEELVRLFLPLVERRRIDRSILLYVE”, which “soluble on expression in E. coli” value is on record?
**A.** not soluble

**Q.** Which “soluble on expression in E. coli” value does the source give for “MLYANKTVGNTSYKLSKKSIKEQTMLQKNKDLLIEIATRDVKSVFAYFKTTRDGLSMKEAQKRIQVYGRNELTSKRALLAEVMMKLGGMIPGFSKQRVCDELQRETITVSRVECSSSTGLNSELKMMEIPVQELVPGDMIFLSAGDAVPADVRIIYADDLLVNESVLTGNEANIEKFESCYHLERKRFIPLKRMKDYNPLELENVCFKGSHIVSGNAKAIVVSTGKNTYSGILHTCCSRTS” here?
**A.** not soluble

**Q.** Which “soluble on expression in E. coli” value does the source give for “MSDKLTEKTVKLDTPIMRGKTEITEIVLRKPQSGALRGTRLQAIMDMDVGAMMTVIPRISTPTLTAQEMAELDPADLTALSVEVVTFLLKKSVLAGLPTA” here?
**A.** not soluble

**Q.** Which “soluble on expression in E. coli” value does the source give for “MSLHGRLRDILRLLMAAEAPVTSSFFAAQLNVTTRTVRNDIKELQGVLSGHGAFVQSVRGSGYKLRIDDEQVFRTLLQDEFQQKKGLPVLPEERMAYLMKRLLLADHYLKLDELAEELFISKSTLQTDLKEVKKRLLPYRIVMETRPNYGFKLRGDEVQMRYCMAEYIVDERETEIDVLNEKADILPKEEIEIIRSAILKKMKNDRIPLSNMGLNNLIIHIAIACKRIRTENYVSLFPKDMDHILHQKEYQAAEAIVKELESKLSVTFPKDETAYITMHLLGTKRMTQSQCGEDTFSIEEETDQLTLAMIKAVDRELKLGILHDKELKIGLALHMKPAISRNRYGMNLRNPMLAAIKEHYPLAFEAGIIAGIVIKEQTGIEIHENEIGYLALHFGAAIERKKTESPPKRCIIVCASGAGSAQLLREKLRSHFGKRLDILGTAEYYSLDQMSYESIDFVISTIPIKKELPVPVLKVNTILGGTDFTKIESILSDEKEKANRYLKKELVFFQEDLRSKEEVIQFLGQKVVECGFADEEIIDSIFEREDMSPTCFGNLVAIPHPLVPQTKTTFWAVCTLKKPIDWESQRVQFVCLLCVEKENKADLQSMYKLLGSILDDPAAMNQLIKCRSYQELSDVFDQKMLSEGHHHHHH” here?
**A.** soluble

**Q.** Which “soluble on expression in E. coli” value does the source give for “GPGSMASFDMLREDILDVFNVFDEEGTGSISMQELTRAIYTITGTRISRSDLRSLVQAVQEEMKEEAHARKTPLGVDLPPRANSLETSISPNADGENDAVDSSLFVAVVLKTLNRHTYEQELLFTFHLLEDKNYPGFITKDSLKKAAAEMEEHLTDQEVNEMFDKLVTGISSSAVDFTTFTSVLEAAKRMDD” here?
**A.** soluble

**Q.** With “MPTAIDLFAGLGGWSNGARRAGVKVLWAANHWPVAVGWHSANHPDAIHVCQDLHQADWSKVPAHGIMLASPCCQGHSKARGKKSGNAQHDSSRSTAWAVVSAAEYHSPEVVLVENVEEFTDWALYPAWSQAMAALGYMIAPHVVDCADLGVPQHRVRLFLVCTRSKAPLNLQLHQRQHVPASSFIDFDSGKWSPIVKPSRAESTLTRVKNGRQRFGERFIMPYYRSGSGLTGSCIERPIGTITKLDRWALVRGNEMRMLSADEGLAGMSFDADTKRPASHRLTMHMAGTSTNPVG” as the sequence, how does the “soluble on expression in E. coli” value read?
**A.** not soluble

**Q.** Which “soluble on expression in E. coli” value does the source give for “MAISLRQLEIFEKVAQCEHVTQASTQLFLTQSAVSMAIAELERVAGAPLFERRGKRLLLNDRGRKILPEAEEVVRRTRAIEQFLEDSAGEPRGVLNVGASTTIGNYILPELIAEFSGNYPDAKVLLTIGNAHQIEHALEKGELDLGLIEGIPHSGVLDSTPWKKDELVVVVGKGHPWACDGAASVEMLGNAPWIMRETGSGTREVFEGAMAGKGISFSISLELGHTEAIKKAIEAGLGVGCLSRIAVNRELEHGWLVEIACPLDLKRTLSLQTRQSGYKTRLLCAFWSLLNRHKDI” here?
**A.** not soluble
